Molecular target: T1, dCREB2-a (Drosophila melanogaster) (UniProt Q9VWW0)
T1 sequence: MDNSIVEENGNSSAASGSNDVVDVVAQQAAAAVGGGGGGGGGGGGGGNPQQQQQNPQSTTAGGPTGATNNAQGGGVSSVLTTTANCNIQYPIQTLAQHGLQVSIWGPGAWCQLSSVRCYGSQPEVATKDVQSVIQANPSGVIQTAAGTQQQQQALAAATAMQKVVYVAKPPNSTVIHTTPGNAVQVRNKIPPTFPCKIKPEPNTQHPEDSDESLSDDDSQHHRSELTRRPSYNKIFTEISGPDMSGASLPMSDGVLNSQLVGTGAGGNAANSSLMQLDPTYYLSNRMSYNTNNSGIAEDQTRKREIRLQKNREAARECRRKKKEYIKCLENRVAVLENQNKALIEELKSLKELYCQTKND
Assay: cell_activity
Settings: F9 cells, with PKA versus PKA alone

Substance: D(-71) CAT reporter CRE fragment
- activity: 5.4 fold

— patent US6051559
